Test results taken from patent publication US20050019758A1 (GlaxoSmithKline, published 2005).
Substitutions are numbered along the chain they refer to. Where “and” joins values, the source holds several entries; their conditions need not be identical. Equal entries are not always repeated.

B1: mAb 19B (antibody, human IgG1)
VH: QVQLVVESGGGLRPGGSLRLSCAASGTTLSGYTMHWVRQAPGKGLEWVSSITGGSNFINYSDSVKGRFTISRDNAKNSLYLQMNSLTAEDTAVYYCATAPIAPPYFDHWGQGTLVTVSS
light: DIQMTQSPSSLSASVGDRVTITCRATQSVSNFLNWYQQKPGEAPTLLIYDASTSQSGVPSRFSGSGSGMDFSLTISSLQPEDLAMYYCQASINTPLFGGGTRIDMRR
modifications: N-linked carbohydrate at Asn59 in part of the molecules (glycovariant)
notes: Human IgG1, kappa; also called Hu19B; version B
B2: mAb 19C (antibody, human IgG1)
VH: B1 VH with S61A
light: not shown
B3: Fab19B (Fab)
VH: B1 VH
light: DIQMNFLNWYQQKPGEAPTLLIYDASTSQSGVPSRFSGSGSGMDFSLTISSLQPEDLAMYYCQASINTPLFGGGTRIDMRR
modifications: N-linked carbohydrate at Asn59 in <10% of the preparation (Table 4)
B4: mAb 19D (antibody, human IgG1)
VH: B1 VH with N59Q
light: not shown
B5: Fab19 (Fab)
VH: EVQLLEVESGGGLRPGGSLRLSCAASGTTLSGYTMHWVRQAPGKGLEWVSSITGGSNFINYSDSVKGRFTISRDNAKNSLYLQMNSLTAEDTAVYYCATAPIAPPYFDHWGQGTLVTVSS
light: ELTQSPSSLSASVGDRVTITCRATQSVSNFLNWYQQKPGEAPTLLIYDASTSQSGVPSRFSGSGSGMDFSLTISSLQPEDLAMYYCQASINTPLFGGGTRIDMRR
B6: Fab19A (Fab)
VH: B5 VH
light: B5 light
B7: mAb 19A (antibody, human IgG1)
VH: B5 VH
light: B5 light
B8: Fab19B Fraction A (1% glycovariant) (Fab)
VH: B1 VH
light: B3 light
modifications: N-linked carbohydrate at Asn59 in 1% of the preparation
B9: mAb 19B Fraction B (40% glycovariant) (antibody, human IgG1)
VH: B1 VH
light: B3 light
modifications: N-linked carbohydrate at Asn59 in 40% of the preparation
B10: mAb 19B Fraction A (<5% glycovariant) (antibody, human IgG1)
VH: B1 VH
light: B3 light
modifications: N-linked carbohydrate at Asn59 in <5% of the preparation
B11: Fab19B Fraction C (99% glycovariant) (Fab)
VH: B1 VH
light: B3 light
modifications: N-linked carbohydrate at Asn59 in 99% of the preparation
B12: Fab19B Fraction B (94% glycovariant) (Fab)
VH: B1 VH
light: B3 light
modifications: N-linked carbohydrate at Asn59 in 94% of the preparation

target: T1, F protein of RS Long strain virus (native form, on virus and infected VERO cells) (Respiratory Syncytial Virus, UniProt P12568 26-574); test: ELISA on methanol-fixed VERO cells infected with RS Long virus, biotinylated mAb 19B, HRP-streptavidin
T1 construct: whole, on cells; also called RS Long (prototype A1); RSV Long strain
T1 sequence (P12568 26-574): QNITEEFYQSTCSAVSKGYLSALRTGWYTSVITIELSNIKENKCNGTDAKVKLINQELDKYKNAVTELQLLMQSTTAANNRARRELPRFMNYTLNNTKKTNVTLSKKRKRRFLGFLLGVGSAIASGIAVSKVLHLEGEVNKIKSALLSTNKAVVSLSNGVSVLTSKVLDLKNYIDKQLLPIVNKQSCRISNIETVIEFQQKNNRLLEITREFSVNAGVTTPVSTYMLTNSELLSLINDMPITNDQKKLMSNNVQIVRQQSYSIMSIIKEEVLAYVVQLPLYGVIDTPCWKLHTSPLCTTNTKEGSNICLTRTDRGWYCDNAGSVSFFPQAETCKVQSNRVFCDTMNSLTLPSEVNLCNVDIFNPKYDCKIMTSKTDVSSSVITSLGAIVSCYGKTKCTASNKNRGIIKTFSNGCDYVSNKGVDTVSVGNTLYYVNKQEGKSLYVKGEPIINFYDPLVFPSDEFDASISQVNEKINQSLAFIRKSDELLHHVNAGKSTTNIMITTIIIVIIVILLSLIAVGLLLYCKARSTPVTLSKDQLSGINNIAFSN

Binder	EC50 [µg/mL]
B1	0.034

target: T1, F protein of RS Long strain virus …; test: cell-based or functional assay

Binder	Fusion-Inhibition Titer EC50 [µg/mL]
B1	2.3

target: T1, F protein of RS Long strain virus …; test: cell-based or functional assay; remark: another data set of the same source

Binder	Fusion-Inhibition EC50	Neutralization EC50 [µg/mL]
B1	2.3 ug/ml and 15.3 nM	1.5
B2	2.4 ug/ml and 16 nM	
B3	0.12 ug/ml and 2.4 nM	
B4	2.6 ug/ml and 17.3 nM	
B5	0.22 ug/ml and 4.4 nM	0.34
B6	0.16 ug/ml and 3 nM	
B7	18.9 nM and 2.8 ug/ml	2.2

target: T1, F protein of RS Long strain virus …; test: cell-based or functional assay; remark: another data set of the same source

Binder	Fusion-Inhibition Titer EC50 [µg/mL]
B1	2.5
B3	0.12
B8	0.89
B9	3.8
B10	1.8
B11	3.7
B12	1.5
